Source: paper doi:10.1101/2025.03.26.645513 (bioRxiv, 2025)

B1: Escherichia coli serine acetyltransferase CysE (enzyme)
chain: MSCEELEIVWNNIKAEARTLADCEPMLASFYHATLLKHENLGSALSYMLANKLSSPIMPAIAIREVVEEAYAADPEMIASAACDIQAVRTRDPAVDKYSTPLLYLKGFHALQAYRIGHWLWNQGRRALAIFLQNQVSVTFQVDIHPAAKIGRGIMLDHATGIVVGETAVIENDVSILQSVTLGGTGKSGGDRHPKIREGVMIGAGAKILGNIEVGRGAKIGAGSVVLQPVPPHTTAAGVPARIVGKPDSDKPSMDMDQHFNGINHTFEYGDGI
B2: Escherichia coli O-acetylserine sulfhydrylase CysK (enzyme, UniProt P0ABK5 1-323, looked up)
chain: MSKIFEDNSLTIGHTPLVRLNRIGNGRILAKVESRNPSFSVKCRIGANMIWDAEKRGVLKPGVELVEPTSGNTGIALAYVAAARGYKLTLTMPETMSIERRKLLKALGANLVLTEGAKGMKGAIQKAEEIVASNPEKYLLLQQFSNPANPEIHEKTTGPEIWEDTDGQVDVFIAGVGTGGTLTGVSRYIKGTKGKTDLISVAVEPTDSPVIAQALAGEEIKPGPHKIQGIGAGFIPANLDLKLVDKVIGITNEEAISTARRLMEEEGILAGISSGAAVAAALKLQEDESFTNKNIVVILPSSGERYLSTALFADLFTEKELQQ
B3: Staphylococcus aureus O-acetylserine sulfhydrylase CysK (enzyme, UniProt P63870 1-310, looked up)
chain: MAQKPVDNITQIIGGTPVVKLRNVVDDNAADVYVKLEYQNPGGSVKDRIALAMIEKAEREGKIKPGDTIVEPTSGNTGIGLAFVCAAKGYKAVFTMPETMSQERRNLLKAYGAELVLTPGSEAMKGAIKKAKELKEEHGYFEPQQFENPANPEVHELTTGPELLQQFEGKTIDAFLAGVGTGGTLSGVGKVLKKEYPNIEIVAIEPEASPVLSGGEPGPHKLQGLGAGFIPGTLNTEIYDSIIKVGNDTAMEMSRRVAKEEGILAGISSGAAIYAAIQKAKELGKGKTVVTVLPSNGERYLSTPLYSFDD
B4: Neisseria gonorrhoeae serine acetyltransferase CysE (enzyme)
chain: MKKNHLNTTGFDLWHTIREETAAAAAAEPMLASFLHQTVLRHESLGSVLAYHLSSKLGSPIMDVRALFEIYQQALGSDTQISKCVEADLKAIYERDPACDEYSLPLLYFKGFHAIQAHRINHRLYLDGRKTLAYFLQNRMSEVFGVDIHPAARLGYGLMLDHATGFVAGETAVLGNNISILHGVTLGGSGKEGGDRHPKIGDGVMIGANASILGNIRIGSNAKIGAGSVVVSDVPPSITVVGVPAKPVARSLKTPSADMDQNIQFAEIDFMI

Assays:
[1] = biological target: Neisseria gonorrhoeae O-acetylserine sulfhydrylase CysK (Neisseria gonorrhoeae); assay: SEC
[2] = biological target: Neisseria gonorrhoeae O-acetylserine sulfhydrylase CysK (Neisseria gonorrhoeae); assay: SEC-SAXS
[3] = biological target: the molecule itself; assay: SEC
[4] = biological target: B2; assay: SEC
[5] = biological target: the molecule itself; assay: SEC-SAXS

Row | Molecule | stoichiometry N [3] | stoichiometry N [5] | further results
1 | Neisseria gonorrhoeae O-acetylserine sulfhydrylase CysK (enzyme) | – | – | stoichiometry N [1]: 2; stoichiometry N [2]: 2
2 | B1 | 6 | – | binding result [4]: binds
3 | B2 | – | 2 | –
4 | B3 | – | 2 | –
5 | B4 | 6 | – | –
